Laboratory results as given in doi:10.1101/2023.03.09.531992 (bioRxiv, 2023).

T1: S. pombe αWD40 domain (N-terminal WD40 domain of α-COPI), wild type (S. pombe, UniProt Q96WV5 1-327)
T1 sequence: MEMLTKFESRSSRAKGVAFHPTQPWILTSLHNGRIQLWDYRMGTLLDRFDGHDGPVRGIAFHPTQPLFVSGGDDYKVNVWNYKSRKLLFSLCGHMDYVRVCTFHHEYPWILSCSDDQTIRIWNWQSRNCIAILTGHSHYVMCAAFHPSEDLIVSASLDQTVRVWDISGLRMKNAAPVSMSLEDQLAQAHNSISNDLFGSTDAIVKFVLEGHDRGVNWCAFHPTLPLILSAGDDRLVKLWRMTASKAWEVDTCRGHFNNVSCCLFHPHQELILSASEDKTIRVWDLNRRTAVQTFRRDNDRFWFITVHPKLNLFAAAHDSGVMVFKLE

T2: S. cerevisiae β’WD40 domain (N-terminal WD40 domain of β’-COPI), wild type (S. cerevisiae, UniProt P41811 1-300)
T2 sequence: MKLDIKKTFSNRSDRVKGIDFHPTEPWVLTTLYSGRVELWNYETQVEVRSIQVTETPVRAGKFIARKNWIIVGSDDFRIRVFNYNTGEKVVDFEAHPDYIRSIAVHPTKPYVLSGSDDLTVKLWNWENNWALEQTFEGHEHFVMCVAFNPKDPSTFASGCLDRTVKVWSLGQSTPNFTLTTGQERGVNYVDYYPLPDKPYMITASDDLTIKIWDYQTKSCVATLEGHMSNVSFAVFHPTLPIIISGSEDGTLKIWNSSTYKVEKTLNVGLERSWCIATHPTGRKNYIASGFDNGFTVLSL


Columns and labels:
[1] = biological target: T1, S. pombe αWD40 domain (N-terminal WD40 …); assay: NMR titration
[2] = biological target: T2, S. cerevisiae β’WD40 domain (N-terminal …); assay: crystal structure

Binder | binding result [1] | binding result [2]
15N-labeled wild-type SARS-CoV-2 S C-terminal tail 21-mer peptide (NMR) (15N isotope label) peptide: not shown | binds | 
GVKLHYT [wild-type SARS-CoV-2 S tail heptapeptide (residues 1267-1273), as co-crystallised] |  | binds
